Assay results published in US20030224463A1 (Dana-Farber, published 2003).

Target: T1, human MLH1 protein (hMLH1) (human, UniProt P40692 1-756, limits assumed)
T1 construct: Translated in vitro for the MBP-hPMS1 column assay
T1 sequence: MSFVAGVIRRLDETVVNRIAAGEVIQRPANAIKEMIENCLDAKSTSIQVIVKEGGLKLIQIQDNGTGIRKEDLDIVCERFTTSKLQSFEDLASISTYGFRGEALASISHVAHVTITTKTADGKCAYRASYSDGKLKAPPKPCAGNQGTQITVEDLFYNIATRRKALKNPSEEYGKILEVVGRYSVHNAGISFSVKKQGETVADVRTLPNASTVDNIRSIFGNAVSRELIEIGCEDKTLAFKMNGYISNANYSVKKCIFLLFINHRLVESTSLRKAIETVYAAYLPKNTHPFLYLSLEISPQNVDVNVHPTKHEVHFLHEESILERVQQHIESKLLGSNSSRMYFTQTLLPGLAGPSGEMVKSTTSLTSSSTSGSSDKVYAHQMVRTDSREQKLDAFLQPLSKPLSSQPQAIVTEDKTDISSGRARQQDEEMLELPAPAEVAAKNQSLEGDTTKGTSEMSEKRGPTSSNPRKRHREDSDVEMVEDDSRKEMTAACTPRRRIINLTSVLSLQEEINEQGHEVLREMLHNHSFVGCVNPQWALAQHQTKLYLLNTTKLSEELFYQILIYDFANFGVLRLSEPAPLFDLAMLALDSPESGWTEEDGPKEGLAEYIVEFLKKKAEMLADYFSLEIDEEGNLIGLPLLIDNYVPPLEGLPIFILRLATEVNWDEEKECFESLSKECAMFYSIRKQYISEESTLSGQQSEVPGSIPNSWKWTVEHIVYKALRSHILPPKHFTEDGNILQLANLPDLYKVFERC
Test: yeast two-hybrid system

B1: human PMS1 protein (hPMS1) (other)
chain: MERAESSSTEPAKAIKPIDRKSVHQICSGQVVLSLSTAVKELVENSLDAGATNIDLKLKDYGVDLIEVSDNGCGVEEENFEGLTLKHHTSKIQEFADLTQVETFGFRGEALSSLCALSDVTISTCHASAKVGTRLMFDHNGKIIQKTPYPRPRGTTVSVQQLFSTLPVRHKEFQRNIKKEYAKMVQVLHAYCIISAGIRVSCTNQLGQGKRQPVVCIGGSPSIKENIGSVFGQKQLQSLIPFVQLPPSDSVCEEYGLSCSDALHNLFYISGFISQCTHGVGRSSTDRQFFFINRRPCDPAKVCRLVNEVYHMYNRHQYPFVVLNISVDSECVDINVTPDKRQILLQEEKLLLAVLKTSLIGMFDSDVNKLNVSQQPLLDVEGNLIKMHAADLEKPMVEHQDQSPSLRIGEEKKDVSISRLREAFSLRHTTENKPHSPKTPEPRRSPLGQKRGMLSSSTSGAISDKGVLRSQKEAVSSSHGPSDPTDRAEVEKDSGHGSTSVDSEGFSIPDTGSHCSSEYAASSPGDRGSQEHVDSQEKAPETDDSFSDVDCHSNQEDTGCKFRVLPQPINLATPNTKRFKKEEILSSSDICQKLVNTQDMSASQVDVAVKINKKVVPLDFSMSSLAKRIKQLHHEAQQSEGEQNYRKFRAKICPGENQAAEDELRKEISKTMFAEMEIIGQFNLGFIITKLNEDIFIVDQHATDEKYNFEMLQQHTVLQGQRLIAPQTLNLTAVNEAVLIENLEIFRKNGFDFVIDENAPVTERAKLISLPTSKNWTFGPQDVDELIFMLSDSPGVMCRPSRVKQMFASRACRKSVMIGTALNTSEMKKLITHMGEMGHPWNCPHGRPTMRHIANLGVISQN
notes: Synthesized in vitro for the MBP column assay
binding result: binds
